28 molecules from article PMC314469, “Protein Interaction Networks by Proteome Peptide Scanning” (PLoS Biology, 2004) can be followed below.

Sequences and labels used below:
T1: amphyphisin SH3 (AMPH_HUMAN), P49418
T1 chain: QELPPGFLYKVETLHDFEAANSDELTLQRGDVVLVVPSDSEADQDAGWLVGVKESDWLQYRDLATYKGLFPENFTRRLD

B1: P81489 112-126 (peptide)
chain: GPGKPERPPPQGGD
B2: BAC05410 275-289 (peptide)
chain: GPAPPPRPPQLERH
B3: Q9P2C5 54-67 (peptide)
chain: GQSAPRRPSAGDGA
B4: O00467 395-408 (peptide)
chain: GQKQPKRPRSESSS
B5: Q96CI4 37-50 (peptide)
chain: GPAGLRRPPDKQPS
B6: Q12984 78-91 (peptide)
chain: GPQRPRRPAKDAQP
B7: Q9ULW0 414-428 (peptide)
chain: GPILPKKPPVKPPT
B8: Q9H8D9 660-673 (peptide)
chain: GQKLPRRPQPGPGE
B9: O75761 132-145 (peptide)
chain: GQRRLRRPLILGLG
B10: Q01167 591-604 (peptide)
chain: GPLGLRRPPSASSD
B11: P18887 443-457 (peptide)
chain: GPSSPQKPPTPEET
B12: P20810 625-639 (peptide)
chain: GQDKPVKPPTKKSE
B13: Q9NUC1 730-743 (peptide)
chain: ALLDPRRPEIPTEQ
B14: O14776 57-71 (peptide)
chain: GPPPPPRPPFGRPP
B15: Q12972 185-198 (peptide)
chain: GNLDIQRPKRKRKN
B16: Q13495 380-393 (peptide)
chain: GPSPPYRPEKLSSP
B17: Q9HCE9 774-787 (peptide)
chain: GPERPKRPGSLLAP
B18: Q9P0U7 35-48 (peptide)
chain: GPRPPPRPARHRSH
B19: Q9Y687 56-69 (peptide)
chain: GPAPLRRPDSSDDR
B20: O60307 800-813 (peptide)
chain: GPAGPKRPVFILGE
B21: Q14163 165-178 (peptide)
chain: GQLQPSRPTRARGT
B22: Q9BW19 13-26 (peptide)
chain: GNIELKRPLIKAPS
B23: O15027 229-243 (peptide)
chain: GQQLPPRPPQSSSV
B24: O15085 1403-1416 (peptide)
chain: GNDDPRRPSRSPPS
B25: Q99687 39-53 (peptide)
chain: GPYGPHRPPQPLPP
B26: O00268 106-119 (peptide)
chain: GPPSPRRPLVPAGP
B27: Q96SD2 167-180 (peptide)
chain: GPLDLRRPMRTVPG
B28: Q99946 106-119 (peptide)
chain: ALLEPRRPPHDYMP

The first test addresses endophilin SH3 (SH3G2_HUMAN), Q99962. The test can be described thus: SPOT array.
B1 returned a normalised SPOT signal, Boehringer light units (BLU); mean over the file's lines of this peptide of 193.

The molecule B2 had a normalised SPOT signal, Boehringer light units (BLU); mean over the file's lines of this peptide of 10700.

Consider B3, for which the normalised SPOT signal, Boehringer light units (BLU); mean over the file's lines of this peptide came out at 142.

B4 returned a normalised SPOT signal, Boehringer light units (BLU); mean over the file's lines of this peptide of 43.7.

Regarding B5, the normalised SPOT signal, Boehringer light units (BLU); mean over the file's lines of this peptide is 383.

The molecule B6 gave a normalised SPOT signal, Boehringer light units (BLU); mean over the file's lines of this peptide of 10700.

With B7, the normalised SPOT signal, Boehringer light units (BLU); mean over the file's lines of this peptide turned out to be 1800.

On to B8, for which the normalised SPOT signal, Boehringer light units (BLU); mean over the file's lines of this peptide is 43.

With B9, the normalised SPOT signal, Boehringer light units (BLU); mean over the file's lines of this peptide was determined as 93.3.

On to B10, for which the normalised SPOT signal, Boehringer light units (BLU); mean over the file's lines of this peptide was 116.

As for B11, the normalised SPOT signal, Boehringer light units (BLU); mean over the file's lines of this peptide was determined as 57.4.

The molecule B12 returned a normalised SPOT signal, Boehringer light units (BLU); mean over the file's lines of this peptide of 232.

Turning to B13, the normalised SPOT signal, Boehringer light units (BLU); mean over the file's lines of this peptide was determined as 36.9.

Molecule B14 came in with a normalised SPOT signal, Boehringer light units (BLU); mean over the file's lines of this peptide of 5310.

Take B15: the normalised SPOT signal, Boehringer light units (BLU); mean over the file's lines of this peptide came to 48.7.

Regarding B16, the normalised SPOT signal, Boehringer light units (BLU); mean over the file's lines of this peptide was determined as 684.

As for B17, the normalised SPOT signal, Boehringer light units (BLU); mean over the file's lines of this peptide is 12300.

Consider B18, for which the normalised SPOT signal, Boehringer light units (BLU); mean over the file's lines of this peptide was 28600.

B19: the normalised SPOT signal, Boehringer light units (BLU); mean over the file's lines of this peptide stood at 45.8.

B20 came in with a normalised SPOT signal, Boehringer light units (BLU); mean over the file's lines of this peptide of 259.

Molecule B21 gave a normalised SPOT signal, Boehringer light units (BLU); mean over the file's lines of this peptide of 111.

B22: the normalised SPOT signal, Boehringer light units (BLU); mean over the file's lines of this peptide is 28.8.

Consider B23, for which the normalised SPOT signal, Boehringer light units (BLU); mean over the file's lines of this peptide stood at 486.

Regarding B24, the normalised SPOT signal, Boehringer light units (BLU); mean over the file's lines of this peptide was found to be 306.

The molecule B25 yielded a normalised SPOT signal, Boehringer light units (BLU); mean over the file's lines of this peptide of 212.

Consider B26, for which the normalised SPOT signal, Boehringer light units (BLU); mean over the file's lines of this peptide turned out to be 2840.

Molecule B27 registered a normalised SPOT signal, Boehringer light units (BLU); mean over the file's lines of this peptide of 972.

Turning to B28, the normalised SPOT signal, Boehringer light units (BLU); mean over the file's lines of this peptide is 55.2.

The target of a further test is T1, amphyphisin SH3 (AMPH_HUMAN), P49418. The test can be described thus: SPOT array.
In turn, B1 returned a normalised SPOT signal, Boehringer light units (BLU); mean over the file's lines of this peptide of 33.9.

For the molecule B2, the normalised SPOT signal, Boehringer light units (BLU); mean over the file's lines of this peptide came to 1000.

B3: the normalised SPOT signal, Boehringer light units (BLU); mean over the file's lines of this peptide came out at 23.6.

For the molecule B4, the normalised SPOT signal, Boehringer light units (BLU); mean over the file's lines of this peptide is 51.5.

With B5, the normalised SPOT signal, Boehringer light units (BLU); mean over the file's lines of this peptide turned out to be 27.8.

On to B6, for which the normalised SPOT signal, Boehringer light units (BLU); mean over the file's lines of this peptide turned out to be 8400.

B7 returned a normalised SPOT signal, Boehringer light units (BLU); mean over the file's lines of this peptide of 44.6.

As for B8, the normalised SPOT signal, Boehringer light units (BLU); mean over the file's lines of this peptide was determined as 14.9.

In turn, B9 returned a normalised SPOT signal, Boehringer light units (BLU); mean over the file's lines of this peptide of 42.9.

Molecule B10 displayed a normalised SPOT signal, Boehringer light units (BLU); mean over the file's lines of this peptide of 11.4.

The molecule B11 yielded a normalised SPOT signal, Boehringer light units (BLU); mean over the file's lines of this peptide of 43.4.

For the molecule B12, the normalised SPOT signal, Boehringer light units (BLU); mean over the file's lines of this peptide came out at 48.2.

B13: the normalised SPOT signal, Boehringer light units (BLU); mean over the file's lines of this peptide worked out at 26.1.

On to B14, for which the normalised SPOT signal, Boehringer light units (BLU); mean over the file's lines of this peptide turned out to be 1370.

The molecule B15 came in with a normalised SPOT signal, Boehringer light units (BLU); mean over the file's lines of this peptide of 2140.

On to B16, for which the normalised SPOT signal, Boehringer light units (BLU); mean over the file's lines of this peptide is 243.

The molecule B17 showed a normalised SPOT signal, Boehringer light units (BLU); mean over the file's lines of this peptide of 2440.

B18 displayed a normalised SPOT signal, Boehringer light units (BLU); mean over the file's lines of this peptide of 13100.

For B19, the normalised SPOT signal, Boehringer light units (BLU); mean over the file's lines of this peptide came to 46.8.

B20 came in with a normalised SPOT signal, Boehringer light units (BLU); mean over the file's lines of this peptide of 9.6.

For the molecule B21, the normalised SPOT signal, Boehringer light units (BLU); mean over the file's lines of this peptide was found to be 4840.

Regarding B22, the normalised SPOT signal, Boehringer light units (BLU); mean over the file's lines of this peptide amounted to 25.9.

Regarding B23, the normalised SPOT signal, Boehringer light units (BLU); mean over the file's lines of this peptide came out at 66.4.

B24 had a normalised SPOT signal, Boehringer light units (BLU); mean over the file's lines of this peptide of 2210.

B25 had a normalised SPOT signal, Boehringer light units (BLU); mean over the file's lines of this peptide of 54.3.

Regarding B26, the normalised SPOT signal, Boehringer light units (BLU); mean over the file's lines of this peptide amounted to 20.9.

As for B27, the normalised SPOT signal, Boehringer light units (BLU); mean over the file's lines of this peptide came out at 1070.

B28 displayed a normalised SPOT signal, Boehringer light units (BLU); mean over the file's lines of this peptide of 33.
